Residue numbers refer to the chain shown, from its start. Names and notes keep the numbering of the source.

B1: Escherichia coli ornithine transcarbamoylase (OTC) variant Y229S, His-tagged (enzyme, E. coli)
chain: SGFYHKHFLKLLDFTPAELNSLLQLAAKLKADKKSGKEEAKLTGKNIALIFEKDSTRTRCSFEVAAYDQGARVTYLGPSGSQIGHKESIKDTARVLGRMYDGIQYRGYGQEIVETLAEYASVPVWNGLTNEFHPTQLLADLLTMQEHLPGKAFNEMTLVYAGDARNNMGNSMLEAAALTGLDLRLVAPQACWPEAALVTECRALAQQNGGNITLTEDVAKGVEGADFISTDVWVSMGEAKEKWAERIALLREYQVNSKMMQLTGNPEVKFLHCLPAFHDDQTTLGKKMAEEFGLHGGMEVTDEVFESAASIVFDQAENRMHTIKAVMVATLSK
notes: Anabolic ornithine transcarbamoylase of E. coli, argI gene, 333-residue subunit; Made by site-directed mutagenesis of the ASKA pCA24N plasmid; 6x-His tag not cleaved; source: E. coli BL21 (DE3) Tuner, purified (HisTrap FF, Superdex 200 SEC)
B2: Escherichia coli ornithine transcarbamoylase (OTC) variant Y229F, His-tagged (enzyme, E. coli)
chain: B1 chain with S229F
notes: as for B1
B3: Escherichia coli ornithine transcarbamoylase (OTC) variant Y160S, His-tagged (enzyme, E. coli)
chain: B1 chain with Y160S, S229Y
notes: as for B1
B4: Escherichia coli ornithine transcarbamoylase (OTC) variant Y160F, His-tagged (enzyme, E. coli)
chain: B1 chain with Y160F, S229Y
notes: as for B1
B5: Escherichia coli ornithine transcarbamoylase (OTC), wild type, His-tagged (enzyme, E. coli)
chain: B1 chain with S229Y
notes: Anabolic ornithine transcarbamoylase of E. coli, argI gene, 333-residue subunit; Expressed from the ASKA plasmid pCA24N; also called WT OTC; anabolic OTC; source: E. coli BL21 (DE3) Tuner, purified (HisTrap FF, Superdex 200 SEC)
B6: Escherichia coli ornithine transcarbamoylase (OTC) variant Q104L, His-tagged (enzyme, E. coli)
chain: B1 chain with Q104L, S229Y
notes: Anabolic ornithine transcarbamoylase of E. coli, argI gene, 333-residue subunit; Made by site-directed mutagenesis of the ASKA pCA24N plasmid; 6x-His tag not cleaved; also called negative control; source: E. coli BL21 (DE3) Tuner, purified (HisTrap FF, Superdex 200 SEC)
B7: Escherichia coli ornithine transcarbamoylase (OTC) variant S61A, His-tagged (enzyme, E. coli)
chain: B1 chain with S61A, S229Y
notes: as for B6
B8: Escherichia coli ornithine transcarbamoylase (OTC) variant D231A, His-tagged (enzyme, E. coli)
chain: B1 chain with S229Y, D231A
notes: as for B1
B9: OTC (E. coli ornithine transcarbamoylase, argI) (Escherichia coli K-12; E300Q) (protein)
chain: B1 chain with S229Y, E299Q
notes: full length, uncleaved 6xHis tag, pCA24N ASKA clone, expressed in BL21(DE3) Tuner; homotrimer of 333-residue subunits
B10: OTC (E. coli ornithine transcarbamoylase, argI) (Escherichia coli K-12; R58A) (protein)
chain: B1 chain with R57A, S229Y
notes: as for B9
B11: OTC (E. coli ornithine transcarbamoylase, argI) (Escherichia coli K-12; D141N) (protein)
chain: B1 chain with D140N, S229Y
notes: as for B9
B12: OTC (E. coli ornithine transcarbamoylase, argI) (Escherichia coli K-12; H273L) (protein)
chain: B1 chain with S229Y, H272L
notes: as for B9

One series concerns the molecule itself. The series can be described thus: SEC-SAXS; in-line SEC-SAXS on a Superdex 200 5/150 GL column; enzyme at 4.3-5.5 mg/mL; apo state, and after incubation with 5 mM CP or 10 mM ORN; self-association of the enzyme (trimer).
Details: not given
(In general: SEC sorts molecules by how far they enter the pores of the column.)
On to B1, for which the binding result is “binds”.

In the case of B2, the binding result is listed as “binds”.

Turning to B3, the binding result was “binds”.

Consider B4, for which the binding result is reported as “binds”.

By stoichiometry N is commonly meant the number of molecules, sites or subunits per partner or assembly. Regarding B5, the “stoichiometry N” value was found to be 3.

On to B6, for which the binding result is reported as “binds”.

B7: the binding result was “binds”.

Take B8: the binding result is listed as “binds”.

Substrate in the next series: NCCC[C@H](N)C(=O)O
The series can be described thus: purified protein. Particulars: 50 mM Tris pH 8.5, 20 °C, 20 mM NaCl, carbamoyl phosphate 5 mM.
Usually Km stands for the substrate concentration at which the rate is half of its maximum. As usually defined, the kcat is the maximal rate divided by the concentration of active sites. Broadly, the kcat/Km is the turnover number divided by the Michaelis constant. For the molecule B9, the Km came to 330 ± 100 µM, the kcat amounted to 5.1 s⁻¹ and the kcat/Km worked out at 16000 M⁻¹ s⁻¹.

For B3, the Km amounted to 7300 ± 2000 µM, the kcat was determined as 410 s⁻¹ and the kcat/Km was found to be 61000 M⁻¹ s⁻¹.

B10: the Km was found to be 440 ± 92 µM, the kcat is 8.2 s⁻¹ and the kcat/Km came to 19000 M⁻¹ s⁻¹.

For the molecule B11, the Km worked out at 17000 ± 5900 µM, the kcat was 460 s⁻¹ and the kcat/Km was determined as 30000 M⁻¹ s⁻¹.

For the molecule B5, the Km is 530 ± 55 µM, the kcat came to 440 s⁻¹ and the kcat/Km was determined as 830000 M⁻¹ s⁻¹.

Consider B8, for which the Km is 590 ± 330 µM, the kcat was 0.7 s⁻¹ and the kcat/Km was found to be 1400 M⁻¹ s⁻¹.

The next series addresses T1, OTC (E. coli ornithine transcarbamoylase, argI) (Escherichia coli, UniProt P04391).
T1 construct: full length, uncleaved 6xHis tag, pCA24N ASKA clone, expressed in BL21(DE3) Tuner; homotrimer of 333-residue subunits
T1 sequence (P04391 2-334): B1 chain with S229Y
The series can be described thus: thermal shift (Sypro Orange). The format is binding. Particulars: absolute Tm, not dTm; 1 mM carbamoyl phosphate, 10 μM enzyme, 50 mM HEPES pH 8, 200 mM NaCl, 2 mM DTT. An excerpt: thermal shift (Sypro Orange) on OTC (E. coli ornithine transcarbamoylase, argI)
In the case of `NC(=O)OP(=O)(O)O` [CP, carbamoyl phosphate], the “enzyme +cp” value is 70 ± 0.5 °C.

Substrate in another series: NC(=O)OP(=O)(O)O
Description: purified protein. The format is biochemical, Escherichia coli. The settings on record: 50 mM Tris pH 8.5, 20 °C, 20 mM NaCl, ornithine 3 mM.
In the case of B12, the Km was found to be 930 ± 580 µM, the kcat is 4.2 ± 1.8 s⁻¹ and the kcat/Km worked out at 5000 ± 1100 M⁻¹ s⁻¹.

As to B9, the Michaelis constant (Km) amounted to 340 ± 110 µM, the catalytic constant (kcat) came out at 4.6 ± 1 s⁻¹ and the kcat/Km worked out at 14000 ± 3300 M⁻¹ s⁻¹.

B10: the Km came out at 280 ± 27 µM, the turnover number (kcat) came to 7.5 ± 1.8 s⁻¹ and the kcat/Km was 27000 ± 7300 M⁻¹ s⁻¹.

Take B5: the Km is 270 ± 34 µM, the kcat turned out to be 410 ± 20 s⁻¹ and the kcat/Km amounted to 1.5e+06 ± 130000 M⁻¹ s⁻¹.

Consider B8, for which the Km was determined as 150 ± 42 µM, the kcat was 0.48 ± 0.1 s⁻¹ and the kcat/Km is 3400 ± 1300 M⁻¹ s⁻¹.

Still in this series, the particulars now being: 50 mM Tris pH 8.5, 20 °C, 20 mM NaCl, ornithine 60 mM (variants with ORN KM above 3 mM).
Regarding B11, the Km was 1400 ± 450 µM, the kcat turned out to be 360 ± 59 s⁻¹ and the kcat/Km was found to be 290000 ± 90000 M⁻¹ s⁻¹.
